Data from PMC2877774, “Structural and Biochemical Bases for the Redox Sensitivity of Mycobacterium tuberculosis RslA” (Journal of Molecular Biology, 2010).
“And” between values parts separate entries of the source, which are not always exact repeats. Identical values can stand only once.

B1: Anti-σ domain (ASD) of Mycobacterium tuberculosis RslA (residues 1–108), Zn2+-bound (domain or fragment)
chain: MTMPLRGLGPPDDTGVREVSTGDDHHYAMWDAAYVLGALSAADRREFEAHLAGCPECRGAVTELCGVPALLSQLDRDEVAAISESAPTVVASGLSPELLPSLLAAVHR
notes: Anti-sigma-L factor RslA, Mycobacterium tuberculosis, cytosolic anti-sigma domain, residues 1-108; also called holo-RslA; Mtb RslA
B2: Apo-RslA: anti-σ domain of Mycobacterium tuberculosis RslA (residues 1–108), Zn2+-free, oxidized (domain or fragment)
chain: B1 chain
modifications: disulfide bond between Cys54 and Cys57 in oxidized apo-RslA; Zn2+ removed
notes: For SPR the Zn2+ was removed on the chip with 10 mM H2O2 and 2 mM TPEN; in solution with 1 mM H2O2 and 5 mM TPEN; also called Zn^2+-free RslA; oxidized RslA
B3: σ2^L domain of Mycobacterium tuberculosis σ^L (domain or fragment)
chain: MARVSGAAAAEAALMRALYDEHAAVLWRYALRLTGDAAQAEDVVQETLLRAWQHPEVIGDTARPARAWLFTVARNMIIDERRSARFRNVV

What was measured:
[1] = target: the molecule itself; test: SEC + other: dynamic light scattering
[2] = target: B1; test: SPR; BIACORE 2000; RslA immobilised on a CM5 chip at 12 ng/mm2; σ^L, σ2^L, σ4^L as analytes; 20 mM Tris-HCl pH 7.8, 200 mM NaCl, 50 mM imidazole, 1 mM DTT (holo-RslA); conditions: both partners purified

Binder | stoichiometry N [1] | Kd [2] [nM]
B1 | 2 and 4 | 
B2 | 2 and 4 | 
B3 |  | ~2000
